We go through 41 sequences from the nanobody polyreactivity screen of Harvey et al. (2022).

The data set in a line: yeast display, Sf9 membrane polyspecificity reagent, FACS + sequencing; frameworks hold sequencing errors. The gist of the method: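 Galactose induction of a Saccharomyces cerevisiae BJ5465 synthetic nanobody display library ran 36–48 hours. The cells were then stained for 1 hour at 4 °C with 10% biotinylated, detergent-solubilized Sf9 membrane reagent, pulled down on streptavidin microbeads and FACS-sorted into low and high (top ~1%) gates on expression and reagent-binding fluorescence. Labels for polyreactivity follow the gate of origin.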
In the case of “QVQLVESGGGLVQAGGSLRLSCAASGFIFYSYAMGWYRQAPGKEREFVASISGRTGSTYYADSVKGRFTISRDNAKNTVYLQMNSLKPEDTAVYYCNARIVHSFRYDYWGQGTQVTVSS”, the “polyreactivity (PSR sort gate)” value is listed as “low polyreactivity”.
Next, “QVQLVESGGGLVQAGGSLRLSCAASGNTFYHYVMGWYRQAPGKESELVAAISRSGGSTYYADSVKGRFTISRDNAKNTVYLQMNSLKPEDTAVYYCAARTSIGLLYDYWGQGTQVTVSS”: “high polyreactivity”; “QVQLVESGGGLVQAGGSLRLSCAASGRIFRYYVLGWYRQAPGKERELVATINWSGSRTYYADSVKGRFTISRDNAKNTVYLQMNSLKPEDTAVYYCAARTFNTYPRYYYWGQGTQVTVSS”: “high polyreactivity”; “QVQLVESGGRLVQAGGSLRLSCAASGGTFRVYAMGWNRQAPGKEIEFVAAISAHGGRTYYADSVKGRFTISRDNAQNTVYLQLNSLKPEDTAVYYFYNRLPNSQDGTSAHYTYYSWGQGTQVTVSS”: “low polyreactivity”.
Next, “QVQLVESGGGLVQAGGSLRLSCAASGSTFGAYAMGWYRQAPGKERELVAAISSSDGSTYYADSVKGRFTISRDNAKNTVYLQMNSLKPEDTAVYYCAAEYYSAVYIDEYWYDYWGQGTQVTVSS”: “high polyreactivity”; “QVQLVESGGGLVQSRVSLRLSCAASGRTIYVNAMGWYRQAPGKEREFVATISGGGSTKYADSVKGRFTISRDNAKNTVYLQMNSLKPEDTAVYYCARRRERYTADSRGYGYWGQGTQVTVSS”: “low polyreactivity”.
Next, “QVQLVESGGGLVQAGGSLRLSCAASGSTSRKYTMGWYRQAPGKERELVATISWSGGSTYYADSVKGRFTISRDNAKNTVYLQMNSLKPEDTAVYYCAAATKVRNLGSFESPGPEVDYWGQGTQVTVSS”: “high polyreactivity”; “QVQLVESGGGLVQAGGSLRLSCAASGRTFLNYAMGWYRQAPGKEREFVAAITWRVGTTYYADSVKGRFTISRDNAKNTVYLQMNSLKPEDTAVYYCAARSRTGRYDYWGQGTQVTVSS”: “high polyreactivity”; “QVQLVESGGGLLQAGGSLRLSCAASGSIIFYYAMGWYRQAPGKEREFVAAITRSGVRTYYADSGKGRFTISRDNAKNTVYLQMNSLKPEDNAVYYCHADYGFYRPVLMGYWGQGTQVTVSS”: “low polyreactivity”.
Turning to “QVHLVESGGGLLQAGGILSLSCAASGITIIVYVMGWYRQAPGKERELVATITYDDSTYADSVKGRFTISRDNAKNTVYFQMNSLKPEDTAVYYDYWGQGTQVTVSS”, the “polyreactivity (PSR sort gate)” value was “low polyreactivity”.
Next, “QVQLVESGGGLVQAGGSLRLSCAASGITFISYAMGWYRQAPGKERELVAGITSDDSTSYADSVKGRFTISRDNAKNTVYLQMNSVKPEDTAVYYCAARSYTLRTSTGRLYRYYYWGQGTQVTVSS”: “high polyreactivity”; “QVQLQESGGGLEQAGGSLRLSCAASGYITDIGTMGWYRQAPGKEREFVATIVVGSTTNYADSVKGRFTISRDNAKNTVYLQPESGRYRGVLLRGWLLAVGNFTYWGQGTQETVSS”: “low polyreactivity”; “HVQLVESGGGLVQAGRSLRLSCAASGGIFYRYAMGWYRQAPGKEWELVATISRRGGRTYYADSVKGRFTISRDYAKNTVYLQMYSLKPEDTAVDYCAADEWQSGHGLEDDYWGQGTQVTVSS”: “high polyreactivity”.
Next, “QVQLVESGGGLVQAGGSLRLSCAASGNIFHYYPMGWYRQAPGKERELVATISWRGDGTNYADSVKGRFTISRDNEKNTVYLQMISLKPEDTAVYYCAARGVWPDYDYWGQGTQVTVSS”: “low polyreactivity”; “QVQLVESGGGLVQAGGSLRLSCAASGSTFPGNAMGWYRQAPGKERELVASIRRSGGSTYYADSVKGRFTISRDNAKNTVYLQMNSLKPEDTAVYYCAKRTFLVSGPRSYGWYGVYYWGQGTQVTVSS”: “high polyreactivity”.
The result for “QVQLVESGGGLVQAGGSLRLICAASGRTFPYNTMGWYRQAPGKERELVAGISIRGSSTYYADSVKGRFTISRDNAKNTVYLQMNSLKPEDTAVYYCAKRYYGWYGNFDYWGQGTQVTVSS” reads “high polyreactivity”; that for “QVQLVESGGGLVQAGGSLRLSCAASGSTFWAYAMGWYRQAPGKERELVATITWSVGGTYYADSVKGRFTISRDNAKNTVYLQMNSLKPEDTAVYYCATDAYVKGVYEISEDRVDYWGQGTQVTVSS”, “low polyreactivity”.
As to “QVQLVESGGGFVQAGGSLRLSCAASGSIFVTNAMGWYRQAPGKDRELVAAISVSGGSTYYADSVKGRFTISRDNAKNTVYLQMNSLKPEDTAVYYCNTVRSPPGHDYWGLGTQVTVSS”, the “polyreactivity (PSR sort gate)” value was “low polyreactivity”.
The result for “QVQLVESGGGLVQAGGSLRLSCAASGYIFCKYAMGWYRQARGKERELVAGITRGGTTYYADSVKGRFTISRDNAKNTVYLQMNSLKPEVTAVYYCARDLLGVSSSRYNSWGQGTQVTVSS” reads “high polyreactivity”.
The result for “QVQLVESGGGLVQAGGSLRLSCAAYGSIFRSYAMGWYRQAPGKERELVAAISSRYGSTYYADSVKGRFTISRDNAKNTVYLQMNSLKPEDTAVYYCGSQHRHSYGYWGQGTQVTVSS” reads “high polyreactivity”; that for “QVQLVESGGGLVQAGGSLRLSCAASVLTFVDYAMGWYRQAPGKERELVAAITSSGGSITYYADSVKGRFTISRDNAKNTVYLQMNSLKPEDTAVYYCNADYGIYTDSFRGQDYESWGQGTQVTVSS”, “low polyreactivity”; that for “QVQLVESGGGLVQAGGSLRLSCAASGSTFWYYAMGWYRQAPGKERELVAAISRSTGSTYYADSVKGRFTISRDNAKNTVYLQMNSLKPEDTAVYYCNKDPVPSFFIPEIGYSEYDYWGQGTQVTVSS”, “low polyreactivity”.
Next, “QVQLVESGGGLVQAGRTLRLSCAASGRTFVPYAMGWYRPAPGKERELVAAISYSGDSTYYADSVKGRFTISRDNAKNTVYLQMNRLKPEDTAVYYCAARGGYPFYYWGQGTQVTVSS”: “low polyreactivity”.
As to “QVQLVESGGGLVQAGGSLRLSCAASGRIFRGYAMGWYRQAPGTERELVAAITRGGSTKYADSVKGRFTISRDNAKNTVYLQMNSLKPEDTAVYYCAKDSYPYVPLYRSRSLYGYWGQGTQVTVSS”, the “polyreactivity (PSR sort gate)” value was “high polyreactivity”.
Take “QVQLVESAGGLVQAGGSLLLSCAASGSTFGTYAMGWYRQAPGKERELVAAISTGGSTYYADSVKGRFTISRDNAKNTVYLQMNSLKPEDTAVYYCAALAEYVRRASDYWGQGTQVTVSS”: the “polyreactivity (PSR sort gate)” value was “low polyreactivity”.
Next, “QVQLVESGGGLVQAGGSLRLSCAASGRIFKYYVMGWYRQAPGKERELVAGISSSGVSTYYADSVKGRFTISRDNAKNTVYLQMNSLKPEDTAVYYCNAKSRTGYGRGDYWGQGTQVTVSS”: “high polyreactivity”; “QVQLVESGGGLVQAGGSLRLSCAASGLTFRYYAMGWYRQAPGKERELVAAISSRGASTYYADSVKGRFTISRDNAKNTVYLQMNSLKPEDTAVYYCAVRTYVYHWSFSSLPYDYWGEGTQVTVSS”: “high polyreactivity”; “QVQLVESGGGLVQAGGSLPLSCAASGRTFWAYAMGWYRQAPGKERELVAAITTSGGSTNYADSVKGRFTISRDNAKNTVYLQMNSLKPEDTAVYYCNADPTYHVVNGVGYWGQGTQVTVSS”: “low polyreactivity”.
Next, “QVQLVESCGGLVQAGGSHRLSCAASGSTFAYNDMGWYRQAPGKERELVADIRSGGNTNYADSVKGRFTISRDNAKNTVYLQMNSLKPEDTAVYYRATDGYRIDVYHPDYRYDYWGQGTQVTVSS”: “low polyreactivity”; “QVQLVESGGCLVQEGGSLRLSCDASGRTFLTYAMGWYRQAPGKERELVAAITDGDSTNYADSVKGRFTISRDNAKNNVYLQMNSLKPEDTAVYYCNADSLAYRYYYWGQGTQVTVSS”: “high polyreactivity”.
The result for “QVQLVESGGGLVQAGGSLRLSCAASGRIFYSNTMGWYRQAPGKERELVAAISRSGGRTYYADSVKGRFTISRDNAKHTVYLQMNSLKPEDTAVYYCNTAYYRNPYYKGYYWGQGTQVTVSS” reads “high polyreactivity”; that for “QVQLVESGGGLVQAGGSLRLSCAASGFIFNVNAMGWYRQAPGKEREFVAVSTYADSVKGRFTISRDNAKNTVYLQMNSLKPEDTAVYYCAATFVQPVYDYDYWGQGTQVTVSS”, “low polyreactivity”; that for “QVQLVESGGGLVQAGGSLRLSCAASGNISPDYGMGWYRQAPGKERELVAVIRWSDDSTYYADSVKGRFTISRDYAKNSVYLQMNSLKPEDTAVYYCSTDDYDAIDLDYWGQGTQVTVSS”, “low polyreactivity”.
As to “QVQLVESGGGLVQAGGSLRLSWAAYGRIFLTNAMGWYRQAPGKERELVAAITSGGSTYYADSVKGRFTISRDNAKNTVYLQMNSLKPEDTAVYYCKADTDRYWPYEYDYWGQGTQVTVSS”, the “polyreactivity (PSR sort gate)” value is given as “low polyreactivity”.
As to “QVQLVESGGGLVQAGGSLRLICAASGSTFYYNDMGWYRQAPGKERELVAAITGDGTTDYADSVKGRFTISRDNAKNTVYLQMNSLKPEDTAVYYCATTWSTYKWPDAYIIWYGYWGQGTQVTVSS”, the “polyreactivity (PSR sort gate)” value is “high polyreactivity”.
On to “QVQLVESVGGLVQAGGSLRISCAASGSIFAINAMGWYRQAPVKERELVAAIRTAGRTYYADSVKGRFTISRDNAKNTVYLQMNSLKPEDSSVYDCNDGGKWIGSDYWGQGTQVTVSS”, for which the “polyreactivity (PSR sort gate)” value was “high polyreactivity”.
Next, “QVKRVESGGGLVQAGGSLRLSCAASGIMFSPNDMGRFRQGPGKERELVARITTDGSSTYYADSVKGRFTISRDNAKNTVYLQINSLKPEDTAVYSCNADQLWYSLFDYWGQGTLVTVSS”: “high polyreactivity”; “QVQLVESGGGLVQAGGSLRLSCAASGSIFGYYAMGWYRPAPGKERELVAAISGSAGTTYYADSVKGRFTISRDNAKNTVYLQMNSLKPEDTAVYYCAKYYPYIQADYGYDYWGQGTQVTVSS”: “low polyreactivity”; “QVQLVESGGGLVQAGGSLRLSCAASGFTFLYNAMGWYRQAPGKERELVAAIDSGGNTNYADSVKGRFTISRDNAKITVYLQLNSLKPEDTAVYYCAADVVSGGQGTADYDYWGQGTQVTVSS”: “low polyreactivity”.
Next, “QVQLVESGGGLVQAGGSLRLSCAASGFTFRYYAMGWYRQAPGKERELVASINWSGGSTYYADSVKGRFTISRDNAKNTVYLQMNSLKPEDTAVYYCAADSIWGHYFARFDYWGQGTQVTVSS”: “high polyreactivity”.
Next, “QVQLVESGGGLVQAGGSLRLSCAASGNTFRRNVMGWYRQAPGKERELVAAINRGGSTTYADSVKGRFTISRDNAKNTVYLQMNSLKAEDTAVYYCNARTLFKWRHGHYYAYDYWGQGTQVTVSS”: “high polyreactivity”.
